Results published in patent publication US20100279943A1 (RAMAT AT TEL AVIV UNIVERSITY, published 2010).

B1: myc-tagged peptide 217-239 of cytMDH (peptide)
peptide: SWLKGEFITTVQQRGAAVIKARK
notes: Expressed from a plasmid inside NSC-34 cells; not shown: human myc tag in frame with the peptide
B2: myc-tagged peptide 14-27 of cytMDH (peptide)
peptide: GQIAHSLLYSIGNG
notes: Expressed from a plasmid inside NSC-34 cells; also called myc-tagged 14-27 peptide; not shown: human myc tag in frame with the peptide

Target: T1, G93A-hSOD1-CFP (human, UniProt P00441 2-154, G93A)
T1 construct: Transiently expressed in NSC-34 cells; FRET donor; also called G93A SOD1-CFP; pECFP-G93A-hSOD1; not shown: CFP (from pECFP plasmid) attached to the C-terminus of SOD1
Experiment: FACS sorting of cells without G93A SOD1-CFP/MDH1-YFP FRET after transfection of the myc-tagged MDH1 peptide library

T1 sequence (P00441 2-154 G94A): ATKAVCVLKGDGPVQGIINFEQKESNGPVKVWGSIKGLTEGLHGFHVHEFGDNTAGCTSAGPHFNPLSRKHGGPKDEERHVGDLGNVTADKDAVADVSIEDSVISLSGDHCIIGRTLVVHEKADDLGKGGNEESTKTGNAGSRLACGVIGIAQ

| Binder | binding result |
| --- | --- |
| B1 | binds |
| B2 | binds |
